According to patent US20140134170A1, “USE OF INHIBITORS OF EGFR-FAMILY RECEPTORS IN THE TREATMENT OF HORMONE REFRACTORY BREAST CANCERS” (MERRIMACK PHARMACEUTICALS, INC., priority 2011, published 2014):

Assays:
[1] = target: T1, ErbB3 (pErbB3) (Homo sapiens, UniProt P21860); assay: Western blot for phosphorylated ErbB3 in ligand-stimulated MCF7 cells; type: cell-based; conditions: for phosphorylation of ErbB3 in stimulated cells: MCF7 cells without MM-121, stimulated 30 minutes, betacellulin relative to heregulin
T1 construct: endogenous in cells; host or cells: MCF7
Description: (§1) FIG. 1 comprises images of western blots of a gel of lysates from untreated control cells (“C”), cells pretreated with (“MM121”) or without pretreatment with MM-121 that were stimulated with heregulin beta 1 (“HRG”), betacellulin (“BTC”), or estrogen (“E2”).
(§2) MCF7 cells are either untreated or pretreated with MM-121 (250 nM) for 1 hour. Cells are then stimulated with heregulin betal (EGF domain, 10 nM R&D systems), betacellulin (20 nM, R&D systems) or estrogen (beta estradiol—100 nM, Sigma) for 30 minutes, or left unstimulated. Lysates of the cells are analyzed by western blot probed for pER and for pErbB3.
(§3) Cells were either untreated or pretreated with MM-121. Untreated and pretreated cells were stimulated with heregulin, betacellulin, or estrogen. Cell lysates were analyzed by western blot for phosphorylated forms of ErbB3 and estrogen receptor.

[2] = system: estrogen receptor alpha (pER, ser 167 and ser 118); assay: Western blot/densitometry for phosphorylated estrogen receptor in ligand-stimulated MCF7 cells; type: cell-based, human; conditions: for phosphorylation of the estrogen receptor in stimulated cells: MCF7 cells without MM-121, stimulated 30 minutes, betacellulin relative to heregulin
Text: as §1
FIG. 2 is a graph showing densitometry results from the relevant (pER) band in each of the control (“Con.”), heregulin (“HRG”), betacellulin (“BTC”), heregulin plus MM-121 (“HRG+MM121”) and betacellulin plus MM-121 (“BTC+MM121”) lanes in FIG. 1. Band density was normalized to GAPDH density and the normalized density (Y-axis) is shown for control and stimulated cells (both with and without MM-121 pretreatment) as indicated on the X-axis. The arrowhead between the HRG and BTC lanes indicates the pER band in the HRG lane.
as §2, §3

[3] = system: MCF-7CA tumors; assay: Letrozole-resistant MCF-7CA intratumoral aromatase xenograft model; type: in vivo, mice; conditions: for tumor growth during initial treatment: MM-121 600 μg Q3D i.p., letrozole 10 μg/mouse/day, treatment from the start; for tumor volume after acquired letrozole resistance: letrozole-resistant tumors re-grouped at about 14 weeks, followed to 19 weeks
Description: To investigate the mechanism of AI resistance, a xenograft model was developed that corresponds to ER+ postmenopausal breast cancer. Tumors for this intratumoral aromatase xenograft model are grown from MCF7 human breast adenocarcinoma cells that have been stably transfected with a human placental aromatase gene to provide a non-ovarian source of estrogen production in ovariectomized athymic mice (MCF-7CA, see e.g. Brodie et al., Clinical Cancer Research 884s Vol. 11, 884s-888s, Jan. 15, 2005 (Suppl.)). Sufficient estrogen is produced (from aromatization of injected androstenedione) by the MCF7-CA cells to stimulate their proliferation and tumor formation. This is a model of a postmenopausal breast cancer patient with tumors that express aromatase and are free of gonadotropin feedback regulation.
MCF-7CA cells were cultured in Eagle's minimum essential medium containing 5% fetal bovine serum and neomycin. The culture medium was changed twice weekly. Subconfluent MCF-7CA cells were scraped into Hank's solution and centrifuged at 1,000 rpm for 2 min at 4° C. The cells were then resuspended in Matrigel™ (10 mg/ml) to make a cell suspension of 2-5×10^7 cells/ml. Ovariectomized female BALB/c athymic mice 4-6 weeks of age (20-22 g body weight) were housed in a pathogen-free environment under controlled conditions of light and humidity and received food and water ad libitum. Each mouse was inoculated subcutaneously (s.c.) with 0.1 ml of the cell suspension. Animals were then injected s.c. daily with 0.1 mg androstenedione/mouse. Growth rates were determined by measuring the tumors with calipers weekly. Tumor volumes were calculated according to the formula for a sphere (4/3 r12. r 2). When tumors reached a measurable size, mice were divided into groups of 10 animals with equivalent tumor volumes (300 mm^3). Mice were treated with 0.1 ml compounds in 0.3% hydroxypropylcellulose (HPC) for 6 weeks.
Tumors were measured weekly and tumor volume was calculated. Mice were sacrificed if tumors continued to grow to volumes of greater than about 1400-1700 mm^3.

[4] = system: TAMR-1, TAMR-7, or TAMR-8 cells (tamoxifen-resistant human mammary carcinoma xenografts); assay: Tamoxifen-resistant MCF7 variant xenografts, MM-121 monotherapy; type: in vivo; conditions: 600 μg per mouse IP every three days; TAMR xenografts in nude mice
Description: Analyses of the anti-tumor efficacy and tolerability of MM-121 treatment of ER+ hormone refractory mammary tumor-bearing mice are carried out using xenografts of tamoxifen-resistant variants of MCF7 human mammary carcinoma cells. Tamoxifen-resistant human mammary carcinoma cell lines TAMR-1, TAMR-7, and TAMR-8 cells are obtained from the laboratory of A. E. Lykkesfeldt (Department of Tumor Endocrinology, Division for Cancer Biology, Danish Cancer Society. Strandboulevarden 49, DK-2100 Copenhagen 0, Denmark). These are grown as xenografts in female athymic nu+/nu+ nude mice obtained from Charles River Laboratories International. […]
To investigate anti-tumor efficacy in monotherapy, MM-121 or vehicle control (100 μL) is given to tumor-bearing mice (i.e., after 14 days of tumor growth following injection of cells) at 600 μg per mouse (MM-121 as a 6 mg/mL solution in PBS) by IP injection every three days. […] Efficacy is determined by comparing tumor growth between the antibody-treated mice and the vehicle control mice and is expressed as the experimental to control ratio of median relative tumor volumes (T/C value). […]
Mice are randomized and therapy begins when a sufficient number of individual tumors have grown to a volume of approximately 200 mm^3. Tumors are measured (L x W) by digital caliper measurement and the tumor volume is calculated using the formula π/6 (W^2×L). […]

Q: With “heregulin: heregulin beta 1 (EGF domain, R&D systems), stimulating ligand” as the molecule, how does the “phosphorylation of ErbB3 in stimulated cells” value [1] read?
A: exhibited phosphorylation of both the estrogen receptor and ErbB3

Q: What about the “phosphorylation of the estrogen receptor in stimulated cells” value [2] of the same molecule?
A: exhibited phosphorylation of both the estrogen receptor and ErbB3

Q: And the “level of ER phosphorylation relative to estrogen stimulation” value ([2]; MCF7 cells, heregulin 10 nM vs beta estradiol 100 nM, 30 minutes)?
A: at least four-fold

Q: With “betacellulin: betacellulin (R&D systems), EGF-like stimulating ligand” as the molecule, how does the “phosphorylation of ErbB3 in stimulated cells” value [1] read?
A: to a lesser extent (about ⅔ less)

Q: What about the “phosphorylation of the estrogen receptor in stimulated cells” value [2] of the same molecule?
A: to a lesser extent (about ⅔ less)

Q: `N#Cc1ccc(C(c2ccc(C#N)cc2)n2cncn2)cc1` [letrozole] was tested. Which “tumor growth during initial treatment” value [3] did it give?
A: progressed more slowly

Q: What about the “time to letrozole resistance (tumor volume increased to 600 mm^3)” value ([3]; daily letrozole 10 μg/mouse/day) of the same molecule?
A: about 14 weeks

Q: And the “tumor volume after acquired letrozole resistance” value [3]?
A: continued to increase in volume over time

B1: MM-121: fully human anti-ErbB3 monoclonal antibody; VH and VL SEQ ID NOs: 1 and 2; heavy and light chains SEQ ID NOs 42 and 43 (antibody, listed as Homo sapiens)
heavy: EVQLLESGGGLVQPGGSLRLSCAASGFTFSHYVMAWVRQAPGKGLEWVSSISSSGGWTLYADSVKGRFTISRDNSKNTLYLQMNSLRAEDTAVYYCTRGLKMATIFDYWGQGTLVTVSSASTKGPSVFPLAPCSRSTSESTAALGCLVKDYFPEPVTVSWNSGALTSGVHTFPAVLQSSGLYSLSSVVTVPSSNFGTQTYTCNVDHKPSNTKVDKTVERKCCVECPPCPAPPVAGPSVFLFPPKPKDTLMISRTPEVTCVVVDVSHEDPEVQFNWYVDGVEVHNAKTKPREEQFNSTFRVVSVLTVVHQDWLNGKEYKCKVSNKGLPAPIEKTISKTKGQPREPQVYTLPPSREEMTKNQVSLTCLVKGFYPSDIAVEWESNGQPENNYKTTPPMLDSDGSFFLYSKLTVDKSRWQQGNVFSCSVMHEALHNHYTQKSLSLSPGK
light: QSALTQPASVSGSPGQSITISCTGTSSDVGSYNVVSWYQQHPGKAPKLIIYEVSQRPSGVSNRFSGSKSGNTASLTISGLQTEDEADYYCCSYAGSSIFVIFGGGTKVTVLGQPKAAPSVTLFPPSSEELQANKATLVCLVSDFYPGAVTVAWKADGSPVKVGVETTKPSKQSNNKYAASSYLSLTPEQWKSHRSYSCRVTHEGSTVEKTVAPAECS
Q: What does the source list for B1?
A: tumor growth [4]: inhibits or stops tumor growth, and in some cases reduces tumor size; reduction in the amount of pErbB3 ([1]; MCF7 cells pretreated with MM-121 250 nM for 1 hour, heregulin 10 nM for 30 minutes): about ⅔; reduction in the amount of pER ([2]; MCF7 cells pretreated with MM-121 250 nM for 1 hour, heregulin 10 nM for 30 minutes, densitometry normalized to GAPDH): about ⅔; tumor growth during initial treatment [3]: grew rapidly over the course of 5 weeks; tumor volume after acquired letrozole resistance [3]: continued to increase in volume over time
